Substrate: COC(=O)[C@@H]1[C@H](C(=O)OC)N(Cc2ccccc2)C(=O)N1Cc1ccccc1
Assay: HPLC of released monomethyl ester; Michaelis-Menten fit (GraphPad Prism)
Format: biochemical, Microbacterium aurantiacum
Conditions: 0.2 mol/L PBS pH 8.0, 30 °C, 10 min, DMSO as substrate solvent, 0.1-12 mmol/L diester
Description: HPLC of released monomethyl ester; Michaelis-Menten fit (GraphPad Prism) on […]01 | the Km value

B1: EstSIT01 (Microbacterium aurantiacum) (protein)
chain: MTLFDGITSRIVDTDRLTVNILERAADDPQTPPDRTVVFVHGNVSSALFWQEIMQDLPSDLRAIAVDLRGFGGSEHAPVDATRGVRDFSDDLHATLEALDIPVAHLVGWSMGGGVVMQYALDHPVLSLTLQSPVSPYGFGGTRRDGSRLTDDDAGCGGGGANPDFIQRLIDHDTSDDAQTSPRSVFRAGYVASDYTTDHEDVWVESMLTTSTADGNYPGDAVPSDNWPGFAAGRHGVLNTMAPQYFDVSGIVDLAEKPPILWIHGTADAIVSDASFYDLNYLGQLGIVPGWPGEDVAPAQEMVSQTRDVLGRYAAGGGTVTEVAVEGAGHSAHLERPAVFRHALLEIIGYVGAAADPAPPTEAIIIRSAD
notes: C-terminal 6xHis tag, pET21a, E. coli BL21(DE3), Ni-NTA purified; catalytic triad Ser110-His330-Asp268
- Km: 147 µM
- kcat: 5.808 s⁻¹

— paper PMC11180644, “Discovery, characterization and mechanism of a Microbacterium esterase for key d-biotin chiral intermediate synthesis” (Bioresources and Bioprocessing, 2024)
